From article PMC3683927 come the findings set out here.

Holding throughout (assay): SPR
(Surface plasmon resonance follows binding to a sensor surface in real time, without labels.)

Data set [1] has as its target T1, AML1 Runt domain (UniProt Q01196 1-188).
Data set [2] deals with T1, AML1 Runt domain. This is another data set of the same source.
For data set [3], the target named is AML1 Runt domain V170A (UniProt Q01196 1-188, V170A).
Chain of AML1 Runt domain V170A (Q01196 1-188 V170A): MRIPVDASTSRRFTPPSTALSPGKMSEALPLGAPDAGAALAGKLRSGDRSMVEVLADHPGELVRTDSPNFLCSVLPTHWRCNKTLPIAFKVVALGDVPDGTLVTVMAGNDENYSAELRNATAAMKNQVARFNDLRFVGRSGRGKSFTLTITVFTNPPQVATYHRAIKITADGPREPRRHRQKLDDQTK

T1 sequence (Q01196 1-188): as the sequence (Q01196 1-188 V170A) above, with A170V counted along it

B1: Apt1-S double-stranded (1-18 / 19-37) (dsRNA)
RNA 1: GGGAUGGACGACCCACCA
RNA 2: CGGCGAGGUAUCCCAUCCC
In the case of B1, in data set [1], the binding signal was ~20 fold reduction in affinity vs Apt1-S.

B2: RDE (dsDNA)
DNA 1: GTCGTTTGCGGTTTGGGGAAAAAAAAAAAAAAAAA
DNA 2: TCCCCAAACCGCAAACGAC
As to B2, in data set [2], binding was put at a Kd of 9.6 ± 0.2 nM. The binding result in data set [3] was “binds”.
For GGGAUGGACGACCCACCACGGCGAGGUAUCCCAUCCC (structured_RNA) [Apt1-S], in that order: 0.99 ± 0.02 nM and “binds”.
On to GGGAUGGACGACCCACCACGGCGCGGUAUCCCAUCCC (structured_RNA) [Apt1-S A24C], for which the binding result in data set [2] is on record as “binds”.
As to GGGAUGGACGACCCACGAAAGCGAGGUAUCCCAUCCC (structured_RNA) [Apt1-S GAAA loop], the binding result in data set [2] is reported as “binds”.
With GGGAUGGACGAGCCACCACGGCGAGCUAUCCCAUCCC (structured_RNA) [Apt1-S C12G-G26C], the binding result in data set [2] is “binds”.
Take GGGAUGGACGACCCACUUUUGCGAGGUAUCCCAUCCC (structured_RNA) [Apt1-S UUUU loop]: in data set [2], the binding result is recorded as “binds”.
Same read-out and setting: next, GGGAUGGACGACCCACCACGGCGUGGUAUCCCAUCCC (structured_RNA) [Apt1-S A24U]: “binds”.
